From patent US20110191903A1, “ENGINEERING PLANT RESISTANCE TO DISEASES CAUSED BY PATHOGENS” (Pioneer Hi-Bred International, Inc., priority 2009, published 2011) come the findings set out here.

Type in all cases: biochemical, Ceriporiopsis subvermispora
Substrate in data set [1]: O=C(O)C(=O)O
Briefly: Oxalate oxidase kinetics, coupled horse radish peroxidase assay, ALT7 (3-25). The source says: (§1) The E. coli expression system was based on the published protocol of Escutia et al. Escutia et al., Cloning and sequencing of two Ceriporiopsis subvermispora bicupin oxalate oxidase allelic isoforms: implications for the reaction specificity of oxalate oxidases and decarboxylases. (2005). The coding sequence for the mature OXOX enzyme was inserted in E. coli expression vector pET32 (Invitrogen) to include a 6× histidine tag at the C-terminus. The resulting expression plasmid was transformed into E. coli strain BL21Star pLysS (Invitrogen).
(§2) E. coli cultures were grown at 37° C. At optical density 0.4, arabinose was added to a concentration or 0.4%. After another hour of growth at 37° C., MnCl2 was added to 5 mM and IPTG to 1 mM. Cultures were then grown at 25° C. for 16 hours. Cells were harvested by centrifugation at 4000 rpm for 10 min. The supernatant was discarded and cell pellets were kept at −80° C. for at least one hour. Pellets were resuspended in total 40 ml of lysis buffer with 50 mM phosphate buffer pH7, 2 mg/ml protease inhibitor (sigma P-8465), 100 mM KCL, 1/1000 lysozyme, 1/2000 endonuclease, and incubated at 37° C. with shaking for one hour, followed by sonication. Cellular debris was removed by centrifugation and the clarified supernatant was poured into a new tube. Nickel resin (Qiagen) was added. After a short period of incubation, the slurry was poured onto a column and washed with buffer. Purified OXOX protein was eluted from the resin in 50 mM succinate pH 5, 100 mM KCl. The E. coli expression procedure was scalable allowing large scale protein production for kinetic analysis as well as small scale production for high throughput screening of libraries.
(§3) Oxalate oxidase enzymatic activity was determined in a coupled reaction. Oxalate oxidase converts oxalic acid to carbon dioxide and hydrogen peroxide. In the presence of horse radish peroxidase, hydrogen peroxide reacts with 3-methyl-2-benzothiazolinone hydrazone (MBTH) and N,N-dimethylaniline (DMA) to form indamine dye, which can be detected spectrophotmetrically or colorimetrically as described by Laker, M. F., Hoffman, A. F., and Meeuse, J. D. (1980) Clinical Chemistry 26, 827-830. The coupled reaction was used for characterization of oxalate oxidase kinetic properties as well as in a screening procedure to identify oxalate oxidase variants with improved enzymatic properties.
(§4) DNA shuffling was performed as described elsewhere herein. A polymerase chain reaction product corresponding to the OXOX-C coding sequence was fragmented by limited nuclease treatment. Synthetic oligonucleotides encoding sequence diversity from oxalate decarboxylase sequences found in public databases were added. A polymerase chain reaction procedure was performed on the mixture to yield a library of full length OXOX-C coding sequences with additional diversity incorporated. The resulting library was inserted in expression vector pET32, E. coli cells were transformed and protein was expressed, as described in Example 2. A tiered screening strategy was devised based on the OXOX protein expression and enzymatic activity determination procedures described in Examples 2 and 3, respectively. A high throughput screening process based on colorimetric determination of OXOX activity was utilized to identify individual E. coli strains harboring active OXOX variants. These OXOX-active strains were reassayed using quantitative spectrophotometric determination of OXOX activity. […] Three rounds of this iterative screening and selection procedure were completed, and OXOX variants with up to 8-fold improved activity were identified
(§5) More modest improvements in Km and Kcat were observed under lower pH conditions. Coupled reaction was preformed as described in Example 3. Enzyme kinetic parameters were determined by standard methods as described in Segel (1976) Biochemical calculations, 2nd Edition. John Wiley & Sons, London, New York, Sydney, Toronto.

Substrate in data set [2]: O=C(O)C(=O)O
Briefly: Oxalate oxidase kinetics, coupled horse radish peroxidase assay, FG10.
From the text: as §1, §2, §3, §4, §5

Substrate in data set [3]: O=C(O)C(=O)O
Briefly: Oxalate oxidase kinetics, coupled horse radish peroxidase assay, OXOX-G.
From the text: (§6) Sequences of both OXOX C and G alleles were published by Escutia et al., 2005 and were deposited with EMBL: OXOX-C partial genomic DNA, Acession No. AJ746414; OXOX-C partial cDNA, Acession No. AJ563659; OXOX-G genomic DNA, Acession No. AJ563660; OXOX-G cDNA, Acession No. AJ746412. See also, Escutia et al., Cloning and sequencing of two Ceriporiopsis subvermispora bicupin oxalate oxidase allelic isoforms: implications for the reaction specificity of oxalate oxidases and decarboxylases. (2005). Based on published sequence, mature proteins of OXOX C (SEQ ID NO: 21) and G (SEQ ID NO: 22) were synthesized and fused to N-terminal barley alpha amylase signal sequence (BAA ss; SEQ ID NO:3). The fungal OXOX coding sequence was synthesized with codon usage suitable for expression in soybean (FIG. 1A) and E. coli (FIG. 1B).
as §1, §2, §3, §5

Substrate in data set [4]: O=C(O)C(=O)O
The data set can be described thus: Oxalate oxidase kinetics, coupled horse radish peroxidase assay, OXOX-C.
From the text: as §6, §1, §2, §3, §5

Substrate in data set [5]: O=C(O)C(=O)O
Briefly: Oxalate oxidase kinetics, coupled horse radish peroxidase assay, FG23.
From the text: as §1, §2, §3, §4, §5

B1: Ceriporiopsis subvermispora oxalate oxidase OXOX-C variant ALT7 (3-25), L23P/I54M/I60E/I99V/W118Y/P154A/I159V/L177M/D218N/F259Y/I278V/F339Y/Y359F/G363A/F396Y … (protein)
chain: RPTENGPQIVIANNAGTYLPVPRGSGTKSSSAADATQTVPFASDDPNPRLWDMDTKNLEKVTPERGQLGAKILGPDNLPIDLQNADTLAPPTTDSGSVPNPKWPFALSHNTLYSGGYVRIQNDEVMPIAKAMAGVNMRLEAGAIRELHWHNTAEWAYVLKGTTQITAVDQNGRNYMANVGPGDLWYFPEGMPHSLQGTDANNEGSEFLLIFPDGTFNSSNQFMITDWLAHTPKDVIAKNFGVDISEFDRLPSHDLYIYPGVAPPLDAKAPEDPQGTVPLPYSFEFSKVKPTQYAGGTVKIADTRTFPIAKTISVAEVTVEPGAMRELHWHPTEDEWTYFIEGQARVTIFAGQSNAQTFDYQAGDIAYIPTAWGHYVENSGNTQLRFLEIFNSPLYEDVSLAQWIANTPPAIVKATLQLSDEVINTLNKQKAFVVG
Usually Km stands for the substrate concentration at which the rate is half of its maximum. What is called kcat is the number of substrate molecules converted per active site and unit of time at saturation. For B1, the Km in data set [1] (other: pH 3.8, pH 3.8) was found to be 450 µM; in data set [1] (other: pH 4.8, pH 4.8), 2170 µM; in data set [1] (other: pH 5.8, pH 5.8), 7840 µM. Further, the kcat in data set [1] (other: pH 3.8, pH 3.8) amounted to 12.01 s⁻¹; in data set [1] (other: pH 4.8, pH 4.8), 8.28 s⁻¹; in data set [1] (other: pH 5.8, pH 5.8) it was 5.85 s⁻¹.

B2: Ceriporiopsis subvermispora oxalate oxidase OXOX-C variant FG10 (3-FG10), D53N/I60E/E65Q/K72E/S115T/Q171E/R174K/M192V/I278V/Y282F/Y359F/V399I/G436A plus S437, … (protein)
chain: RPTENGPQIVIANNAGTYLPVLRGSGTKSSSAADATQTVPFASDDPNPRLWNIDTKNLEKVTPQRGQLGAEILGPDNLPIDLQNADTLAPPTTDSGSIPNPKWPFALSHNTLYTGGWVRIQNDEVMPIAKAMAGVNMRLEAGAIRELHWHNTPEWAYILKGTTQITAVDENGKNYLANVGPGDLWYFPEGVPHSLQGTDANNEGSEFLLIFPDGTFDSSNQFMITDWLAHTPKDVIAKNFGVDISEFDRLPSHDLYIFPGVAPPLDAKAPEDPQGTVPLPFSFEFSKVKPTQYAGGTVKIADTRTFPIAKTISVAEVTVEPGAMRELHWHPTEDEWTFFIEGQARVTIFAGQSNAQTFDYQGGDIAYIPTAWGHYVENSGNTQLRFLEIFNSPLFEDISLAQWIANTPPAIVKATLQLSDEVINTLNKQKAFVVASD
notes: C-terminal 6xHis, pET32, E. coli, nickel purified
In the case of B2, the Km in data set [2] (other: pH 3.8, pH 3.8) was 400 µM; in data set [2] (other: pH 4.8, pH 4.8) it was 1830 µM; in data set [2] (other: pH 5.8, pH 5.8), 5900 µM. Further, the kcat in data set [2] (other: pH 3.8, pH 3.8) was 8.01 s⁻¹; in data set [2] (other: pH 4.8, pH 4.8), 6.00 s⁻¹; in data set [2] (other: pH 5.8, pH 5.8) it was 2.65 s⁻¹.

B3: Ceriporiopsis subvermispora oxalate oxidase OXOX-G, SEQ ID NO: 19 (Gelatoporia subvermispora) (protein)
chain: RPTGNDVFYLPRAVAVSSAGASSPASLSSGTESSSAAEPTETVPFASDDPNPRLWNIDTQDLSVVAPERGPLGAKIIGPDNLPLDIQNADTLAPPTTDSGSIPNAKWPFALSHNTLYTGGWVRIQNNEVLPIAKAMAGVNMRLEAGTIRELHWHNTPEWAYILKGTTQITAVDENGKNYLANVGPGDLWYFPEGMPHSLQGTNASDEGSEFLLIFPDGTFDASNQFMITDWLAHTPKDVIAKNFGVDISEFDRLPSHDLYIFPGVAPPLDATAPEDPQGTIPLPYSFEFSKVVPTQYAGGTVKIADTRTFPISKTISVAEITVEPGAMRELHWHPTEDEWTFFIEGQARVTLFAGESNAQTYDYQGGDIAYIPTAYGHYVENSGNTTLRFLEIFNSPLFQDVSLTQWLANTPRAIVKATLQLSDNVIDSLNKSKAFVVASD
With B3, the Km in data set [3] (other: pH 3.8, pH 3.8) was determined as 400 µM; in data set [3] (other: pH 4.8, pH 4.8) it was 1370 µM; in data set [3] (other: pH 5.8, pH 5.8) it was 6140 µM. Also, the kcat in data set [3] (other: pH 3.8, pH 3.8) amounted to 4.80 s⁻¹; in data set [3] (other: pH 4.8, pH 4.8), 2.56 s⁻¹; in data set [3] (other: pH 5.8, pH 5.8), 0.82 s⁻¹.

B4: Ceriporiopsis subvermispora oxalate oxidase OXOX-C, SEQ ID NO: 18 (Gelatoporia subvermispora B) (protein)
chain: RPTENGPQIVIANNAGTYLPVLRGSGTKSSSAADATQTVPFASDDPNPRLWDIDTKNLTKVTPERGQLGAKILGPDNLPIDLQNADTLAPPTTDSGSIPNPKWPFALSHNTLYSGGWVRIQNDEVMPIAKAMAGVNMRLEAGAIRELHWHNTPEWAYILKGTTQITAVDQNGRNYLANVGPGDLWYFPEGMPHSLQGTDANNEGSEFLLIFPDGTFDSSNQFMITDWLAHTPKDVIAKNFGVDISEFDRLPSHDLYIFPGVAPPLDAKAPEDPQGTIPLPYSFEFSKVKPTQYAGGTVKIADTRTFPIAKTISVAEVTVEPGAMRELHWHPTEDEWTFFIEGQARVTIFAGQSNAQTYDYQGGDIAYIPTAWGHYVENSGNTTLRFLEIFNSPLFEDVSLAQWIANTPPAIVKATLQLSDEVINTLNKSKAFVVG
B4: the Km in data set [4] (other: pH 3.8, pH 3.8) was 350 µM; in data set [4] (other: pH 4.8, pH 4.8), 1240 µM; in data set [4] (other: pH 5.8, pH 5.8), 5950 µM. For the same protein, the kcat in data set [4] (other: pH 3.8, pH 3.8) turned out to be 5.45 s⁻¹; in data set [4] (other: pH 4.8, pH 4.8), 2.74 s⁻¹; in data set [4] (other: pH 5.8, pH 5.8), 0.91 s⁻¹.

B5: Ceriporiopsis subvermispora oxalate oxidase OXOX-C variant FG23 (3-FG23), … (protein)
chain: RPTENGPQIVIANNAGTYLPVLRGSGTKSSSAADATQTVPFASDDPNPRLWNIDTQDLSVVAPERGPLGAKILGPDNLPIDLQNADTLAPPTTDSGSVPNPKWPFALSHNTLYSGGWVRIQNNEVLPIAKAMAGVNMRLEAGAIRELHWHNTPEWAYILKGTTQITAVDQNGRNYLANVSPGDLWYFPEGIPHSLQGTDANNEGSEFLLIFPDGTFDASNQFMITDWLAHTPKDVIAKNFGVDISEFDRLPSHDLYIFPGVAPPLDAKAPEDPQGTVPLPYSFEFSKVKPTQYAGGTVKIADTRTFPIAKTISVAEVTVEPGAMRELHWHPTEDEWTFFIEGQARVTIFAGQSNAQTYDYQGGDIAYIPTAYGHYVENSGNTQLRFLEIFNSPLFEDVSLAQWIANTPPAIVKATLQLSDEVIDSLNKQKASVVG
For the protein B5, the Km in data set [5] (other: pH 3.8, pH 3.8) was 380 µM; in data set [5] (other: pH 4.8, pH 4.8) it was 1210 µM; in data set [5] (other: pH 5.8, pH 5.8) it was 5250 µM. Moreover, the kcat in data set [5] (other: pH 3.8, pH 3.8) stood at 7.06 s⁻¹; in data set [5] (other: pH 4.8, pH 4.8), 4.62 s⁻¹; in data set [5] (other: pH 5.8, pH 5.8), 2.61 s⁻¹.
